Assays:
[1] = target: C4BP-ANG1 (human) (UniProt P04003); experiment: negative-stain electron microscopy
[2] = target: C4BP-ANG1 (human) (UniProt P04003); experiment: non-reducing SDS-PAGE
[3] = target: ANG1-C4BP (human) (UniProt Q15389); experiment: non-reducing SDS-PAGE

C4BP-ANG1 (from UniProt P04003 541-597; Q15389-1 281-498) (ligand)
stoichiometry N [1]: 7 | stoichiometry N [2]: 7

ANG1-C4BP (from UniProt Q15389-1 281-498; P04003 541-597) (ligand)
stoichiometry N [3]: 7

— paper doi:10.1101/2020.03.30.016147
